From patent US20230174642A1, “AFFINITY-MATURATED ANTI-ASIC1a ANTIBODIES” (SHANGHAITECH UNIVERSITY, priority 2019, published 2023)

T1: hASIC1a on CHO-K1 cells stably expressing hASIC1a (human, UniProt P78348 1-528)
T1 sequence (looked up): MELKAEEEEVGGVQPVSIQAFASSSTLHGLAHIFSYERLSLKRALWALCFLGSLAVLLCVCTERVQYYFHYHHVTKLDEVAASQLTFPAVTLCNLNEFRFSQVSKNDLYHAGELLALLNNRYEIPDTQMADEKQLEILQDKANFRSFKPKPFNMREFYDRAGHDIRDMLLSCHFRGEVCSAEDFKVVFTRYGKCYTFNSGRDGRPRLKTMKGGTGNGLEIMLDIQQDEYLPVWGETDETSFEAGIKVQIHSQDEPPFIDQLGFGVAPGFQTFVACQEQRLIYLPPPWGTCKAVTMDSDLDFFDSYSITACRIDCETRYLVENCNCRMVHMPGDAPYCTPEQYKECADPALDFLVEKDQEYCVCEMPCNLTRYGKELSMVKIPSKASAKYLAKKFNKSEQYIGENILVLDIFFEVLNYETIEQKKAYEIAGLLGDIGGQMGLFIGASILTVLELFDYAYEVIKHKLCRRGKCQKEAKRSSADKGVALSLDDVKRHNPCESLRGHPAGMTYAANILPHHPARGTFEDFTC

T2: hASIC1a-mCherry fusion on a stable cell line (human, UniProt P78348 1-528)
T2 sequence (looked up): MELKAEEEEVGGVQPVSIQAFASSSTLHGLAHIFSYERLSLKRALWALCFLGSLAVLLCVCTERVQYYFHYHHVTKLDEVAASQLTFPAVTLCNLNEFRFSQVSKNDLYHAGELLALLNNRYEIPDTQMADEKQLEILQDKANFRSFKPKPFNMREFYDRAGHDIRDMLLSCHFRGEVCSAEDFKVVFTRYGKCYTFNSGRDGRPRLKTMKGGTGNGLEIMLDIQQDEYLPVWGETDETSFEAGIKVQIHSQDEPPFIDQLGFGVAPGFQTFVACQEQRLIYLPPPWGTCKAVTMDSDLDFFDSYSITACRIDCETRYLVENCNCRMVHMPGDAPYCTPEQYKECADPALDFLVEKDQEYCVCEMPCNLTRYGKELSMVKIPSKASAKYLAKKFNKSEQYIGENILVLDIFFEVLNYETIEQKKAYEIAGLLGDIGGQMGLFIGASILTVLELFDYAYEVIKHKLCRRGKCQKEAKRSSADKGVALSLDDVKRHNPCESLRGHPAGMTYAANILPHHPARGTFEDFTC

T3: recombinant extracellular domain of hASIC1a (hASIC1a-ECD) (human, UniProt P78348 67-427, limits assumed)
T3 construct: extracellular domain; ASIC1a is one splice isoform of it; also called trimeric ectodomain of hASIC1a
T3 sequence (looked up): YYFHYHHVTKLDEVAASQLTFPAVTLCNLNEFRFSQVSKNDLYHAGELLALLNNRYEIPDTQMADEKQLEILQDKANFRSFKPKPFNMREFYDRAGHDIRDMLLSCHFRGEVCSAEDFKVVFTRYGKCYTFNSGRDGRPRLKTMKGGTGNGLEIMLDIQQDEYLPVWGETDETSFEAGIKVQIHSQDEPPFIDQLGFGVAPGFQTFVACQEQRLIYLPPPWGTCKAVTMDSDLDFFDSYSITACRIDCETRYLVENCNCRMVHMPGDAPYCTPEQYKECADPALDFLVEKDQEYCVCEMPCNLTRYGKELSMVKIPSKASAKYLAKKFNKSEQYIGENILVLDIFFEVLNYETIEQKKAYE


Assays:
[1] = molecular target: T1, hASIC1a on CHO-K1 cells stably …; assay: cell-based or functional assay
[2] = molecular target: T2, hASIC1a-mCherry fusion on a stable cell …; assay: cell-based or functional assay
[3] = molecular target: T3, recombinant extracellular domain of …; assay: SPR, Biacore T200, hASIC1a-ECD immobilized, IgG1 as analyte
Procedure: Binding affinities of four affinity-matured antibodies in IgG1 format (ASC06-01-IgG1 through ASC06-04-IgG1) to the recombinant extracellular domain of hASIC1a(hASIC1a-ECD) were measured using the Biacore T200™ (GE Healthcare). The ASC06-IgG1 antibody was used as a positive control. All manipulations were followed by the user guide of manufacturer. Briefly, was hASIC1a was immobilized, and serial dilutions of the indicated antibodies were added as analytes. The analysis of the results were processed in BIA Evaluation Software™.

| Percent inhibition of the acid induced-hASIC1a currents, 30 nM antibody (Patch Clamp) [1] | Percent inhibition of the acid induced-hASIC1a currents, 100 nM antibody (Patch Clamp) [1] | IC50 for the inhibition of acid induced ASIC1a-mediated calcium influx, FLIPR-based assay [2] | Kd [3] | koff [3] | kon [3] | Binder |
| --- | --- | --- | --- | --- | --- | --- |
| 20% | 49% | 2.24 nM | 0.1 nM | 0.000997 s⁻¹ | 9.7e+06 M⁻¹ s⁻¹ | ASC06-01-IgG1 (antibody, V domains shown, Full length IgG1) VH: QVQLQQSGGGLVQPGGSLRLSCAASGFTFSSYAMSWVRQAPGKGLEWVSAISGSGGSTYYADSVKGRFTISRDNSKNTLYLQMNSLRAEDTAVYYCAKDSYFGYSKGDWGQGTLVTVSS VL: QSALTQPASVSGSPGQSITISCTGTSSDVGAYNYVSWYQQQPGKAPKLMIYGVSNRPSGVSNRFSGSKSGNAASLTISGLQAEDEADYYCSSYTSSSTYVFGTGTKLTVLG |
| 35.5% | 55.5% | 2.11 nM | 0.28 nM | 0.0013 s⁻¹ | 4.7e+06 M⁻¹ s⁻¹ | ASC06-IgG1 (antibody, V domains shown, Tested as full length IgG1; also called WT antibody ASC06-IgG1; parental ASC06-IgG1 antibody) VH: QVQLQQSGGGLVQPGGSLRLSCAASGFTFSSYAMSWVRQAPGKGLEWVSAISGSGGSTYYADSVKGRFTISRDNSKNTLYLQMNSLRAEDTAVYYCAKDSFYGYSKGDWGQGTLVTVSS VL: QSALTQPASVSGSPGQSITISCTGTSSDVGAYNYVSWYQQQPGKAPKLMIYGVSNRPSGVSNRFSGSKSGNAASLTISGLQAEDEADYYCSSYTSSSTYVFGTGTKLTVLG |
| 94.6% | 97.2% | 1.97 nM | 0.0125 nM | 0.000168 s⁻¹ | 1.3e+07 M⁻¹ s⁻¹ | ASC06-02-IgG1 (antibody, V domains shown, Full length IgG1) VH: QVQLQQSGGGLVQPGGSLRLSCAASGFTFSSYAMSWVRQAPGKGLEWVSAISGSGGSTYYADSVKGRFTISRDNSKNTLYLQMNSLRAEDTAVYYCAKDSFFGRAKGSWGQGTLVTVSS VL: QSALTQPASVSGSPGQSITISCTGTSSDVGAYNYVSWYQQQPGKAPKLMIYGVSNRPSGVSNRFSGSKSGNAASLTISGLQAEDEADYYCSSYTSSSTYVFGTGTKLTVLG |
